This test has as its target NbNRC2 (Nicotiana benthamiana). Put plainly: native gel or EMSA. Background: A gel shift assay detects complexes by their altered migration in electrophoresis.

Several values for one entry are separate records, joined by “and”; a condition that tells them apart may be missing. Identical values can stand only once.

In the case of NbNRC2 (receptor), the stoichiometry N – broadly, a count of units in the complex or per binding partner – is 2 and 4.

(Values after PMC12521494.)
